One data set deals with T1, S100A4 (Homo sapiens, UniProt P26447).
T1 construct: We used full-length S100A4 for this analysis; made in house; host or cells: Escherichia coli BL21(DE3)
Kind of data set: Quin-2 fluorescence, Ca^2+ dissociation from S100A4 in the presence of target peptides. Type of data set: binding. On the procedure:
Ca^2+ dissociation measurements for wild-type S100A4, using Quin-2 as described above, were repeated as a control for the effect of target peptides on this process. On mixing 10 μM S100A4 in the presence of Ca^2+ with 100 μM Quin-2, the observed profile was fitted to a single exponential with kobs = 17 s^− 1 (Fig. 5a; cf. k− 1 in Scheme 1).
Fig. 5 Dissociation of Ca^2+ from S100A4 in the absence and in the presence of target peptides monitored using Quin-2 fluorescence. (a) Mixed with 100 μM Quin-2 was 10 μM S100A4 + 50 μM Ca^2+ (stopped-flow reaction chamber concentrations). A superposed fit to a single exponential yields kobs = 17 s^− 1. […] (d) As in (a), but with 2.5 μM M200 premixed with 5 μM S100A4. A biphasic exponential fit yielded rate constants of 13 s^− 1 (A = 26%) and 0.30 s^− 1 (A = 74%). […] Experiments were carried out in either 20 mM NaCl, 20 mM Tris, 1 mM DTT, and 100 μM Ca^2+ at pH 7.5 and 20 °C (a and b; cf. Malashkevich et al.[17]), or 100 mM NaCl, 10 mM Hepes, and 100 μM Ca^2+ at pH 7.5 and 20 °C (c and d). […] Rate constants were unaffected by the inclusion of 1 mM Mg^2+.
Stopped-flow measurements were carried out using an SX18-MV apparatus (Applied Photophysics Ltd., Leatherhead, UK) with a dead time of 1.5 ms.[40] Records were generally captured on a logarithmic time base. Absorption (turbidity) measurements were usually recorded using a 10-mm pathlength, while fluorescence was recorded with a 2-mm pathlength for excitation and emission. The stated concentrations of components refer to the reaction chamber after mixing, unless otherwise indicated. Tyrosine fluorescence was excited at 280 nm, and the emission was collected through a UG11 bandpass filter plus a 305-nm longpass filter.[18] Fluorescein fluorescence was excited at 480 nm, and the emission was detected through a 515-nm longpass filter. Quin-2 fluorescence was measured by excitation at 336 nm, and emission was collected with a 455-nm longpass filter. For simultaneous recording of light scatter, a second channel was monitored through a UG11 filter. Rate constants were obtained by fitting to single-exponential or double-exponential functions using Kaleidagraph (Synergy Software) or Applied Photophysics Pro-Data software. Modeling of kinetic schemes was performed using Berkeley Madonna software.

Data set [1] in a line: CD / helical stability of M111. Type of data set: physicochemical. The conditions noted are these: 0.05 mM protein. On the procedure: CD spectra were measured on a JASCO J-715 spectropolarimeter equipped with a JASCO PTC-348WI temperature-controlled unit at 0.05 mM protein solutions using a 1-mm pathlength microcuvette.
Where [2] appears, read: increasing concentrations of M111.

“Also recorded” adds a separate entry of the source.

T1 sequence (P26447 whole entry): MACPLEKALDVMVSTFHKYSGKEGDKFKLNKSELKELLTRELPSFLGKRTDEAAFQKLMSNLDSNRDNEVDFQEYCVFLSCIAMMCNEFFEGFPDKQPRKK

B1: M111: His-tagged human NM-MHC IIA residues 1850-1960, V1913I substitution (protein, UniProt P35579 1850-1960, looked up, variant V1913I)
chain: QVDDERRNAEQYKDQADKASTRLKQLKRQLEEAEEEAQRANASRRKLQRELEDATETADAMNREISSLKNKLRRGDLPFVVPRRMARKGAGDGSDEEVDGKADGAEAKPAE
modifications: His tag
notes: His-tagged human NM-MHC IIA residues 1850-1960, V1913I substitution
For B1, in the data set with S100A4 (5 μM M111, 10 μM S100A4), the fast-phase amplitude was found to be 6% and the slow-phase amplitude worked out at 94%. The slow-phase rate constant with S100A4 (5 μM M111, 10 μM S100A4, 50 μM Ca^2+, 100 μM Quin-2) worked out at 0.36 s⁻¹. Moreover, the fast-phase rate constant with S100A4 (5 μM M111, 10 μM S100A4, 50 μM Ca^2+, 100 μM Quin-2, residual unbound S100A4) was 21 s⁻¹. Also, in the data set with S100A4 (in presence of coiled-coil fragments), the “slower release of Ca^2+” value was 0.3–0.5 s^− 1. In the data set with S100A4 (setting [2]), the fast-phase rate constant amounted to 20 s^− 1 and the slow-phase rate constant was 0.4 s^− 1. Moreover, the “Ca^2+ dissociation rate constant from complex (k− 3), comparison” value in the data set with S100A4 (peptide–S100A4–Ca^2+ complex) came to 0.3 s^− 1. Also, in data set [1], the helical structure stability entry is “high helical content detected for the fragment by CD below 20 °C; also recorded: only marginally stable at 20 °C”.

Values taken from PMC3025356, “Mechanism of the Ca^2+-Dependent Interaction between S100A4 and Tail Fragments of Nonmuscle Myosin Heavy Chain IIA” (Journal of Molecular Biology, 2011).
